The target of this test is actin (Homo sapiens, UniProt P60709). As to the kind of experiment: Ca2+-ATPase activity inhibition.

By Kd is commonly meant a measure of binding affinity in units of concentration. High values mean a looser complex, low ones a tighter complex.

B1: plasma membrane calcium pump (PMCA) (protein)
chain: MTNPSDRVLPANSMAESREGDFGCTVMELRKLMELRSRDALTQINVHYGGVQNLCSRLKTSPVEGLSGNPADLEKRRQVFGHNVIPPKKPKTFLELVWEALQDVTLIILEIAAIISLVLSFYRPAGEENELCGQVATTPEDENEAQAGWIEGAAILFSVIIVVLVTAFNDWSKEKQFRGLQCRIEQEQKFSIIRNGQLIQLPVAEIVVGDIAQVKYGDLLPADGILIQGNDLKIDESSLTGESDHVKKSLDKDPMLLSGTHVMEGSGRMVVTAVGVNSQTGIILTLLGVNEDDEGEKKKKGKKQGVPENRNKAKTQDGVALEIQPLNSQEGIDNEEKDKKAVKVPKKEKSVLQGKLTRLAVQIGKAGLLMSALTVFILILYFVIDNFVINRRPWLPECTPIYIQYFVKFFIIGITVLVVAVPEGLPLAVTISLAYSVKKMMKDNNLVRHLDACETMGNATAICSDKTGTLTMNRMTVVQAYIGGIHYRQIPSPDVFLPKVLDLIVNGISINSAYTSKILPPEKEGGLPRQVGNKTECALLGFVTDLKQDYQAVRNEVPEEKLYKVYTFNSVRKSMSTVIRNPNGGFRMYSKGASEIILRKCNRILDRKGEAVPFKNKDRDDMVRTVIEPMACDGLRTICIAYRDFDDTEPSWDNENEILTELTCIAVVGIEDPVRPEVPDAIAKCKQAGITVRMVTGDNINTARAIATKCGILTPGDDFLCLEGKEFNRLIRNEKGEVEQEKLDKIWPKLRVLARSSPTDKHTLVKGIIDSTVGEHRQVVAVTGDGTNDGPALKKADVGFAMGIAGTDVAKEASDIILTDDNFTSIVKAVMWGRNVYDSISKFLQFQLTVNVVAVIVAFTGACITQDSPLKAVQMLWVNLIMDTFASLALATEPPTESLLKRRPYGRNKPLISRTMMKNILGHAFYQLIVIFILVFAGEKFFDIDSGRKAPLHSPPSQHYTIVFNTFVLMQLFNEINSRKIHGEKNVFSGIYRNIIFCSVVLGTFICQIFIVEFGGKPFSCTSLSLSQWLWCLFIGIGELLWGQFISAIPTRSLKFLKEAGHGTTKEEITKDAEGLDEIDHAEMELRRGQILWFRGLNRIQTQIDVINTFQTGASFKGVLRRQNMGQHLDVKLVPSSSYIKVVKAFHSSLHESIQKPYNQKSIHSFMTHPEFAIEEELPRTPLLDEEEEENPDKASKFGTRVLLLDGEVTPYANTNNNAVDCNQVQLPQSDSSLQSLETSV
On to B1, for which binding was put at a Kd of 680 nM.

These data come from PMC3894748 (2013).
